Source: patent US20210332123A1 (SUZHOU KANOVA BIOPHARMACEUTICAL, published 2021)

Columns and labels:
Assay in all cases: ELISA (FIG. 4)
human IL-17D = molecular target: T1, human IL-17D (human, UniProt Q8TAD2 18-202, limits assumed)
T1 sequence (looked up): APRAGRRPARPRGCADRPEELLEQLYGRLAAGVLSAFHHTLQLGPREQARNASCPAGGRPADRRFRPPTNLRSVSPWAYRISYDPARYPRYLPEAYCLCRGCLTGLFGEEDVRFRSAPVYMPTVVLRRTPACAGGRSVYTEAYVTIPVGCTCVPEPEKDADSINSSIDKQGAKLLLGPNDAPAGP
Description: (§1) MaxiSorp 96-well plates (NUNC #449824, www.thermofisher.com) were coated with 2 μg/ml human IL-17A (Cell Signaling #89285F, www.cellsignal.com), human IL-17F (Cell Signaling #8906LC, www.cellsignal.com), human IL-17B (Peprotech #200-28, www.peprotech.com), human IL-17C (R&D systems #1234-IL-025/CF, www.rndsystems.com), human IL-17D ((Peprotech #200-27, www.peprotech.com), human IL-17E (R&D systems #1258-IL-025/CF, www.rndsystems.com) in 1×PBS (50 μl/well) respectively. Plates were incubated at 4° C. overnight. Coating solution was removed and plates were washed once with 200 μl/well PBST (1×PBS with 0.05% tween-20). Then 200 μl/well blocking buffer (1×PBS with 0.05% tween-20, 3% BSA) was added and incubated at room temperature for 1 hour. Blocking buffer was removed and plates were washed three times with 200 μl/well PBST (1×PBS with 0.05% tween-20). The anti-IL-25 antibodies (produced in Example 2), were diluted to 10, 3.33, 1.11, 0.37, 0.123, 0.041, 0.0137, 0.0046, 0.0015, 0.00031, 0.000102, 0.000034 μg/ml by 1×PBS and added to the plates (50 μl/well). Plates were incubated at room temperature for 2 hours. Antibodies in the wells were removed and plates were washed three times with 200 μl/well PBST (1×PBS with 0.05% tween-20) each time. Goat anti-human IgG(H&L)-HRP secondary antibody (Jackson Immuno Research #109-035-088, www.jacksonimmuno.com) was diluted 1:5000 in 1×PBS and added to each well (50 μl/well). Plates were incubated at room temperature for 1 hour. Secondary antibody was removed and plates were washed seven times with 200 μl/well PBST (1×PBS with 0.05% tween-20) each time. 50 μl/well TMB (eBioscience #85-00-4201-56, www.ebioscience.com) was added and plates were incubated at room temperature for several minutes. Then 50 μl/well 2N H₂SO₄ was added to stop the reaction. Plates were read at 450 nm.

human IL-17F = molecular target: T2, human IL-17F (human, UniProt Q96PD4 31-163)
T2 sequence (looked up): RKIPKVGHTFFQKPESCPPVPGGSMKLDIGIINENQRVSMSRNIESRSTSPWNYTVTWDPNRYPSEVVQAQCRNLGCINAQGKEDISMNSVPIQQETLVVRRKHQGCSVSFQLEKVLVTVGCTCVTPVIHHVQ
Description: as §1

human IL-17C = molecular target: T3, human IL-17C (human, UniProt Q9P0M4 19-197)
T3 sequence (looked up): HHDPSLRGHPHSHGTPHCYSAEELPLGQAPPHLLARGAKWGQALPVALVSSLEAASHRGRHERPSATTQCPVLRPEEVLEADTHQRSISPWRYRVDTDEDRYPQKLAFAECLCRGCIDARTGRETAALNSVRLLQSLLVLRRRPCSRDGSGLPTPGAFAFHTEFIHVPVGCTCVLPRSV
Description: as §1

human IL-17A = molecular target: T4, human IL-17A (human, UniProt Q16552 24-155, limits assumed)
T4 sequence (looked up): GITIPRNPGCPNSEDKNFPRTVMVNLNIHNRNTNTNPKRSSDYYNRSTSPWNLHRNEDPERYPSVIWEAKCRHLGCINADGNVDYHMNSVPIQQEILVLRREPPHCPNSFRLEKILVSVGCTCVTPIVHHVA
Description: as §1

Measured: binding result

B1: murine anti-IL-25 monoclonal antibody 18H3 (antibody, V domains shown)
VH: QVTLKESGPGILQPSQTLSLTCSFSGFSLSTSGMGLGWIRQPSGKGLEWLAHIWWDDVKHYKPALKSRLTISKDISSSQVFLTIASVDTADTATYYCARMGQLHYYGYDYAMDYWGQGTSVTVSS
VL: QIVLTQSPAIMSASPGEKVTISCSASSSVSYMYWYQQKPGSSPKPWIYRTSNLASGVPARFSGSGSGTSYSLTISSMEAEDAATYYCQLYHSYPPTWTFGGGTKLEIK
notes: also called parental antibody; parental murine mAb
no binding: human IL-17D | human IL-17F | human IL-17C | human IL-17A
